Assay results: PMC2064468 (The Journal of Cell Biology, 2007)

Molecular target: T1, FtsY (bacterial SRP receptor), wild type, as used in the GTPase assays (Escherichia coli, UniProt P10121 1-497)
T1 sequence (looked up): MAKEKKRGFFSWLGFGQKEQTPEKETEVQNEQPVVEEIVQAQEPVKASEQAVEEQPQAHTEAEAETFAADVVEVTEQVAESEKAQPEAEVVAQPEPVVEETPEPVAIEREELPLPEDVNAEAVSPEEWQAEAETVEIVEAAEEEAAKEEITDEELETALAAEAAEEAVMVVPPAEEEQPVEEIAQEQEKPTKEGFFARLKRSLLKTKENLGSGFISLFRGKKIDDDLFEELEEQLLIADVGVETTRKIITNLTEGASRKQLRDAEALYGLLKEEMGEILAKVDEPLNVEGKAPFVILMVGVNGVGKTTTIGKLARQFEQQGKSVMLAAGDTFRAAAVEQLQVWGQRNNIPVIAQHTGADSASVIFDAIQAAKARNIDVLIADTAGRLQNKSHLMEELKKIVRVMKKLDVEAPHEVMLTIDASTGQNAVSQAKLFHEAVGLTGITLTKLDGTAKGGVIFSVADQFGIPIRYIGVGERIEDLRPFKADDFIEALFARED
Test: GTPase inhibition

B1: SRP with Ffh A144W (bound to the 4.5S SRP RNA) (natural protein, Escherichia coli, UniProt P0AGD7 1-453, looked up)
chain: MFDNLTDRLSRTLRNISGRGRLTEDNVKDTLREVRMALLEADVALPVVREFINRVKEKAVGHEVNKSLTPGQEFVKIVRNELVAAMGEENQTLNLAAQPPAVVLMAGLQGAGKTTSVGKLGKFLREKHKKKVLVVSADVYRPAWIKQLETLAEQVGVDFFPSDVGQKPVDIVNAALKEAKLKFYDVLLVDTAGRLHVDEAMMDEIKQVHASINPVETLFVVDAMTGQDAANTAKAFNEALPLTGVVLTKVDGDARGGAALSIRHITGKPIKFLGVGEKTEALEPFHPDRIASRILGMGDVLSLIEDIESKVDRAQAEKLASKLKKGDGFDLNDFLEQLRQMKNMGGMASLMGKLPGMGQIPDNVKSQMDDKVLVRMEAIINSMTMKERAKPEIIKGSRKRRIAAGCGMQVQDVNRLLKQFDDMQRMMKKMKKGGMAKMMRSMKGMMPPGFPGR
Ki: 260 nM
